The data set deals with YY1 (Mus musculus, UniProt Q00899 1-414). Nature of the data set: EMSA. (In general: A gel shift assay detects complexes by their altered migration in electrophoresis.)
Chain of YY1 (Q00899 whole entry): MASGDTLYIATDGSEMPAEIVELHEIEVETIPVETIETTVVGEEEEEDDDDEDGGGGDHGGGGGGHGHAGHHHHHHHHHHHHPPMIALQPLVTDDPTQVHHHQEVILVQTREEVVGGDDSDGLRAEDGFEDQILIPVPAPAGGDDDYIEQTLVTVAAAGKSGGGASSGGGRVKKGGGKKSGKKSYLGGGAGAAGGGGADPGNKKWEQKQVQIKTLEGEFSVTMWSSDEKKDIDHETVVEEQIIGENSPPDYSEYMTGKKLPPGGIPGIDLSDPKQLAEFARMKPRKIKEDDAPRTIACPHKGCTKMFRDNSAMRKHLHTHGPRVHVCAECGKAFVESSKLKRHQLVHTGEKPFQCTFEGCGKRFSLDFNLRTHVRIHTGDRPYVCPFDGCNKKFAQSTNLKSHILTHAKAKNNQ

B1: Arid1a promoter 30-bp DNA (dsDNA)
DNA 1: CTCTTCTCTCTTAAAATGGCTGCCTGTCTG
DNA 2: CAGACAGGCAGCCATTTTAAGAGAGAAGAG
For the molecule B1, the binding result is recorded as “binds”.

Values taken from paper PMC4720525.
